Results: patent US9677128

Target: T1, J-binding protein 1 (JBP1) (Crithidia fasciculata) (UniProt Q9U6M2)
T1 sequence: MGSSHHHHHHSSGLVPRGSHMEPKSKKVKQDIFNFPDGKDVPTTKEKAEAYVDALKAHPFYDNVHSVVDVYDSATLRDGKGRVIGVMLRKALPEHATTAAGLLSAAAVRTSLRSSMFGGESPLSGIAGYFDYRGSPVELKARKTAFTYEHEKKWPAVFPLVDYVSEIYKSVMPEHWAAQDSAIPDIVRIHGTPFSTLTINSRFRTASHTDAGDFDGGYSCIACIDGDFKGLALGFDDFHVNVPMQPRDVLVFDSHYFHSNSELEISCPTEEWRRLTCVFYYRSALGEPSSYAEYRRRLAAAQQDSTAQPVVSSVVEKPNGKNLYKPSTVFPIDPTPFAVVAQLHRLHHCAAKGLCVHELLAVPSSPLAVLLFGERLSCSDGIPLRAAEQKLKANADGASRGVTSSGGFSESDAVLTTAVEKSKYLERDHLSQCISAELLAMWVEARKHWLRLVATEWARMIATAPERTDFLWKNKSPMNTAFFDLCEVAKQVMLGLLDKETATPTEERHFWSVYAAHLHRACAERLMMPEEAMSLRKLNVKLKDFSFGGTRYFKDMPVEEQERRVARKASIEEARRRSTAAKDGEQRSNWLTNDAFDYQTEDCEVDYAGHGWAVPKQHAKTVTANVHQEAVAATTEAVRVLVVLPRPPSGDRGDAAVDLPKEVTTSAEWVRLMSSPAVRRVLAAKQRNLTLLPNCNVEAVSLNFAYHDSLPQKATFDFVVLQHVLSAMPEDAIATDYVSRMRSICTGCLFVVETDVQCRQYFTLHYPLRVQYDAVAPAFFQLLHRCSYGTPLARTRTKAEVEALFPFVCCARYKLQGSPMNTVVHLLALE
Test: pulldown
Details: beta-glucosyl-5hmC in place of all C (outside primers); 132 ng JBP1 beads, 10 ng DNA, 150 mM NaCl, 10 mM Tris pH 8.0, 2 mM EDTA, room temperature

## pUC18 2.7 kb PCR product, beta-glu-5hmC
  binding signal (% DNA pulled down): < 6
